Measured values published in IntAct's records for PubMed 20890284.

B1: TYRO protein tyrosine kinase-binding protein (Homo sapiens), O43914 (parent)
chain: MGGLEPCSRLLLLPLLLAVSGLRPVQAQAQSDCSCSTVSPGVLAGIVMGDLVLTVLIALAVYFLGRLVPRGRGAAEAATRKQRITETESPYQELQGQRSDVYSDLNTQRPYYK
B2: Hematopoietic cell signal transducer (Homo sapiens), Q9UBK5 (parent)
chain: MIHLGHILFLLLLPVAAAQTTPGERSSLPAFYPGTSGSCSGCGSLSLPLLAGLVAADAVASLLIVGAVFLCARPRRSPAQEDGKVYINMPGRG

How the values were obtained:
[1] = variants of: B1; settings: with nkg2c_human KLRC2, P26717
[2] = variants of: B1; settings: with ki2s3_human KIR2DS3, Q14952
[3] = variants of: B2; settings: with nkg2d_human KLRK1, P26718
Sequence of nkg2d_human KLRK1, P26718 (P26718 whole entry): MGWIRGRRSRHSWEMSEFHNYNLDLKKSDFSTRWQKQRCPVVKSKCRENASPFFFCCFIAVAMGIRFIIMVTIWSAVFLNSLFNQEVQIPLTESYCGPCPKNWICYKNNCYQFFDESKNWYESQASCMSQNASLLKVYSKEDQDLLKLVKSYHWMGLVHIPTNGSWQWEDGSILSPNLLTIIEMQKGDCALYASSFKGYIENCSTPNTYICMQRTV

Sequence of nkg2c_human KLRC2, P26717 (P26717 whole entry): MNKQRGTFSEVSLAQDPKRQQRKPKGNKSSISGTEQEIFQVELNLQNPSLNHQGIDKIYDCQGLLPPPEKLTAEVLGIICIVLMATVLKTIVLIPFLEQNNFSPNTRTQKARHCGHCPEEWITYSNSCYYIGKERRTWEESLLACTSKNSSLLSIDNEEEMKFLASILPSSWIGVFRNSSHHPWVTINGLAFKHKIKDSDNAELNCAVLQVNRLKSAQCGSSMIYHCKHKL
Sequence of ki2s3_human KIR2DS3, Q14952 (Q14952 whole entry): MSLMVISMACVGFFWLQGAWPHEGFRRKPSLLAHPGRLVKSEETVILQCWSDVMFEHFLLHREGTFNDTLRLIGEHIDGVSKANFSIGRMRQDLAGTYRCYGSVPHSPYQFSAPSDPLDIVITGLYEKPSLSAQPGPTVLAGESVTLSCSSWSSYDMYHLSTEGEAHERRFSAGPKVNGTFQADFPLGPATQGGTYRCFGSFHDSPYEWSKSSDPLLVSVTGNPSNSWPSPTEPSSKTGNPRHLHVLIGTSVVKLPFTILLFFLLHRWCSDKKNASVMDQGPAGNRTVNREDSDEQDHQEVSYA

Variant	effect of a mutation on the interaction [1]	effect of a mutation on the interaction [2]	effect of a mutation on the interaction [3]
T54A	decreasing interaction	decreasing interaction	
A58F	decreasing interaction	decreasing interaction	
MIHLGHILFLLLLPVAAAQTTPGERSSLPAFYPGTSGSCSGCGSLSLPLLAGLVAAAAVASLLIVGAVFLCARPRRSPAQEDGKVYINMPGRG			decreasing interaction
